Molecular target: T1, EpCAM (UniProt P16422 P16422:24-265)
T1 sequence: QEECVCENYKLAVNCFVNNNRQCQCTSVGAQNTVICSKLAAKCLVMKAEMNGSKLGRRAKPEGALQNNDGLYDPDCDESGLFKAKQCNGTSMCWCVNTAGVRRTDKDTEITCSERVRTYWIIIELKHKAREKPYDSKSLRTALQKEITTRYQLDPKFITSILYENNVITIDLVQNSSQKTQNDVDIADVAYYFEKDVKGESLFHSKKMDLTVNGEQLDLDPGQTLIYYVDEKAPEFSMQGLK
Assay: stated identified by library screening to recognize EpCAM, no data shown

B1: CAR003 (ssRNA)
RNA: AUCCAGAGUGACGCAGCAGUCUUUUCUGAUGGACACGUGGUGGUCUAGUAUCACUAAGCCACCGUGUCCA
B1: binds.

Source: patent US20190367903, “OLIGONUCLEOTIDE PROBES AND USES THEREOF” (CARIS SCIENCE, INC., published 2019)
